Experimental data reported in US20070142277.

Target: T1, fluorogenic APP-based peptide MCA-SEVNLDAEFK(DNP)-CONH2
T1 chain: SEVNLDAEFK

B1: BACE455 (protein)
chain: ETDEEPEEPGRRGSFVEMVDNLRGKSGQGYYVEMTVGSPPQTLNILVDTGSSNFAVGAAPHPFLHRYYQRQLSSTYRDLRKGVYVPYTQGKWEGELGTDLVSIPHGPNVTVRANIAAITESDKFFINGSNWEGILGLAYAEIARIIGGIDHSLYTGSLWYTPIRREWYYEVIIVRVEINGQDLKMDCKEYNYDKSIVDSGTTNLRLPKKVFEAAVKSIKAASSTEKFPDGFWLGEQLVCWQAGTTPWNIFPVISLYLMGEVTNQSFRITILPQQYLRPVEDVATSQDDCYKFAISQSSTGTVMGAVIMEGFYVVFDRARKRIGFAVSACHVHDEFRTAAVEGPFVTLDMEDCGYNIPQTDESTLMTIAYVMAAICALFMLPLCLMVCQWRCLRCLRQQHDDFADDISLLK
With B1 as the protein, how does the BACE activity over time: mean fluorescence signal of Substrate V cleavage by HEK293 membrane extract, 15 min (mean fluorescence signal) read?
Its BACE activity over time: mean fluorescence signal of Substrate V cleavage by HEK293 membrane extract, 15 min (mean fluorescence signal) is 125.

And the BACE activity over time: mean fluorescence signal of Substrate V cleavage by HEK293 membrane extract, 60 min (mean fluorescence signal)?
The BACE activity over time: mean fluorescence signal of Substrate V cleavage by HEK293 membrane extract, 60 min (mean fluorescence signal) was 195.

And the BACE activity over time: mean fluorescence signal of Substrate V cleavage by HEK293 membrane extract, 120 min (mean fluorescence signal)?
Its BACE activity over time: mean fluorescence signal of Substrate V cleavage by HEK293 membrane extract, 120 min (mean fluorescence signal) is 228.

And the BACE activity over time: mean fluorescence signal of Substrate V cleavage by HEK293 membrane extract, 240 min (mean fluorescence signal)?
The BACE activity over time: mean fluorescence signal of Substrate V cleavage by HEK293 membrane extract, 240 min (mean fluorescence signal) was 239.
